Assay results reported in PMC11584738.

Target: His-GST-TRP (without signal peptide) (Verticillium dahliae strain V991)
Assay: MST

Kd: 1790 nM
Substance: GST-CTL1 (without signal peptide) (natural protein)
